Publication PMC10805704, “VCIP135 associates with both the N- and C-terminal regions of p97 ATPase” (The Journal of Biological Chemistry, 2023)

These binders were tested against T1, endogenous p97 purified from rat liver cytosol, biotinylated (rat (endogenous in rat liver), UniProt P46462 1-806, biotinylated using EZ-Link Sulfo-NHS-LC-biotin (sites not given)) (assay: pull-down; endogenous rat liver p97, biotinylated, immobilised on streptavidin beads; His-tagged VCIP135 or its fragments or mutants in solution; 1 mM AMP-PNP (Figs 1A, 5C, 5D: the indicated nucleotide, 1 mM); 20 mM HEPES, 100 mM KCl, 1 mM MgCl2, 1 mM DTT, 0.5% CHAPS, 10% glycerol, pH 7.4; Western blot with antibodies to p97 and His-tag). Conditions: both partners purified.
T1 construct: p97 ATPase (VCP), endogenous protein purified from rat liver cytosol; Held on streptavidin beads through the biotin; also called p97ATPase; VCP; source: purified from rat liver cytosol
T1 sequence (P46462 whole entry, the tested form may be a part): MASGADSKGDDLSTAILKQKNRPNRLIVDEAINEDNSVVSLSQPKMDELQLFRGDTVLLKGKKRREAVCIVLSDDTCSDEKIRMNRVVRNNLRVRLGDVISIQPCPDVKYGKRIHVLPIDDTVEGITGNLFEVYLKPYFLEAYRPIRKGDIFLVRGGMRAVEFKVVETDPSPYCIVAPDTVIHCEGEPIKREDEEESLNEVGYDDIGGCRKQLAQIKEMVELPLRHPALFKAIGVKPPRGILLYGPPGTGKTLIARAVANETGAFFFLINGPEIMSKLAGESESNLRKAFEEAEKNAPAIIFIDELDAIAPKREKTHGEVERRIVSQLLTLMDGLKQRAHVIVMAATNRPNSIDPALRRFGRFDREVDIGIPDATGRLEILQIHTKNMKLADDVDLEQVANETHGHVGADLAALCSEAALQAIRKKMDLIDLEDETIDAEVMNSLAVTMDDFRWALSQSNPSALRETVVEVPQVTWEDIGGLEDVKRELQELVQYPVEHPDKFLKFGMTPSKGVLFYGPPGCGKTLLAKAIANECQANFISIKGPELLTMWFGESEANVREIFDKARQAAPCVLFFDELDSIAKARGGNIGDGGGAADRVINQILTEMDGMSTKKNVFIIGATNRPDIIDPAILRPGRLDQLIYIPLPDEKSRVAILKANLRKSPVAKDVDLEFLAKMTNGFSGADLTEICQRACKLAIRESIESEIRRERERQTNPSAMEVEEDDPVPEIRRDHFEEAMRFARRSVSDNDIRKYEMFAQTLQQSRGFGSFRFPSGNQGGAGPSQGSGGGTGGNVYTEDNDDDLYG

Row | binding result | Binder
1 | binds | His-tagged VCIP135(744-1221) (domain or fragment, rat, UniProt Q8CF97 744-1221, looked up, also called C-terminal half of VCIP135) TVSPSTIRDGPSSAPATPTKAPYSPTTSKEKKIRITTNDGRQSMVTLKSSTTFFELQESIAREFNIPPYLQCIRYGFPPKELMPPQAGMEKEPVPLQHGDRITIEILKGKAEGGPSTAAHSAHTVRQEEIAVTGKLSSKELQEQADKEMYSLCLLATLMGEDVWSYAKGLPHMFQQGGVFYNIMKKTMGMADGKHCTFPHLPGKTFVYNASEDRLELCVDAAGHFPIGPDVEDLVKEAVSQVRAEATTRSRESSPSHGLLKLGSGGVVKKKSEQLHNVTAFQGKGHSLGTASSNPHMDPRARETLAVRKHNTGTDFSNSSIKTEPPVFTAASSNSELIRIAPGVVTMRDGRQIDPDVVEAQRKKLQEMVSSIQASMDKHLRDQSTEQTPSDLSQRKVEAVSSSVRPGNLQTGLPESFSLTGGTENLNTETTDSRVADVLGAAFATRSKAQKENSMEEPEEMDSQDAETTNTTEPMDHS
2 | binds | His-tagged VCIP135(1-743) (domain or fragment, rat, UniProt Q8CF97 1-743, looked up, also called N-terminal half of VCIP135) MSQPPPPPPLPPPPPPPEAPQTSSSLAAAATPGGLSKRRDRRILSGSCPDPKCQARLFFPASGSVSIECTECGQRHEQQQLLGVEEVTDPDVVLHNLLRNALLGVTGAPKKNTELVKVMGLSNYHCKLLSPILARYGMDKQTGRAKLLRDMNQGELFDCALLGDRAFLIEPEHVNTVGYGKDRSGSLLYLHDTLEDIKRANKSQECLIPVHVDGDGHCLVHAVSRALVGRELFWHALRENLKQHFQQHLARYQALFHDFIDAAEWEDIINECDPLFVPPEGVPLGLRNIHIFGLANVLHRPIILLDSLSGMRSSGDYSATFLPGLIPAEKCTGRDGHLNKPICIAWSSSGRNHYIPLVGIKGAALPKLPMNLLPKAWGVPQDLIKKYIKLEEDGGCVIGGDRSLQDKYLLRLVAAMEEVFMDKHGIHPSLVADVHQYFYRRTGVIGVQPEEVTAAAKKAVMDNRLHKCLLCGALSELHVPPEWLAPGGKLYNLAKSTHGQLRPDKNYSFPLNNLVCSYDPVKDVLLPDYGLSNLTACNWCHGTSVRRVRGDGSIVYLDGDRTNSRSTGGKCGCGFKHFWEGKEYDNLPEAFPITLEWGGRVVRETVYWFQYESDPSLNSNVYDVAMKLVTKHFPGEFGSEILVQKVVHTILHQTAKKNPDDYTPVNIDGAHAQRIGDVQGQELESQLPTKIILTGQKTKTLHKEELNMSKTERTIQQNITEQASVMQKRKTEKLKQEQKGQPR
3 | binds | His-tagged VCIP135(1-390) (domain or fragment, rat, UniProt Q8CF97 1-390, looked up, VCIP135, rat, residues 1-390) MSQPPPPPPLPPPPPPPEAPQTSSSLAAAATPGGLSKRRDRRILSGSCPDPKCQARLFFPASGSVSIECTECGQRHEQQQLLGVEEVTDPDVVLHNLLRNALLGVTGAPKKNTELVKVMGLSNYHCKLLSPILARYGMDKQTGRAKLLRDMNQGELFDCALLGDRAFLIEPEHVNTVGYGKDRSGSLLYLHDTLEDIKRANKSQECLIPVHVDGDGHCLVHAVSRALVGRELFWHALRENLKQHFQQHLARYQALFHDFIDAAEWEDIINECDPLFVPPEGVPLGLRNIHIFGLANVLHRPIILLDSLSGMRSSGDYSATFLPGLIPAEKCTGRDGHLNKPICIAWSSSGRNHYIPLVGIKGAALPKLPMNLLPKAWGVPQDLIKKYIKL
4 | binds | His-tagged VCIP135(903-1053) (domain or fragment, rat, UniProt Q8CF97 903-1053, looked up) GEDVWSYAKGLPHMFQQGGVFYNIMKKTMGMADGKHCTFPHLPGKTFVYNASEDRLELCVDAAGHFPIGPDVEDLVKEAVSQVRAEATTRSRESSPSHGLLKLGSGGVVKKKSEQLHNVTAFQGKGHSLGTASSNPHMDPRARETLAVRKH
